Experimental data from patent US20020132974A1, “BETA SHEET FORMING PEPTIDES AND GELS MADE THEREOF” (priority 1995, published 2002).

Tests used:
[1] = response of peptide gels to chemical switches (pH, salt, surfactant, solvent); type: physicochemical
Excerpt: As mentioned, the gels of the invention are susceptible to chemical triggers which result in changes in the properties of the gels so that they switch from, for example, a first fluid state to a gel state or vica versa.
Addition of salt causes the network to contract and phase separate as a more concentrated gel phase. Changing the polarity of the solvent, ie making it more polar (water) or non-polar ( chloroform), preserves the β-sheet structure, but the gel network is destabilised and precipitation of the peptide occurs. In strong hydrogen-bonding donor solvents (like hexafluoroisopropanol), the peptide adopts an α-helical conformation (FIG. 3b) and there is no gelation. Solvents containing arornatic groups cause destabilisation of β-tapes by 20-30% and disruption of the gels. This is believed to be due to competition between intermolecular peptide aromatic side-chain interactions and the aromatic groups of the solvent Acetylation at the N-terminus and amination at the C-temiinus of the 27-residue peptide results in a preference for the a-helical conformation and gels are not formed. It seems that favourable interactions between β-nanotapes and solvent are important for gel stabilisation. By appropriate peptide design, peptides can be produced which will form nanotapes and gels in a variety of solvents, including water. For example, peptides derived from the Drosophila Toll receptor protein, from the Alzheimer amyloid peptide and from desmin filaments and from the β-domain of the leu lysozyme (SER-1). Chemical switches also include changes in pH, for example, the hydrophilic peptide AcNH-Gln-Ala-Thr-Asn-Arg-Asn-Thr-AspGly-Ser-Thr-AspTyr-Gly-Ile-Leu-Gin-Ile-Asn-Ser-Arg-CONH2 (SER-1) forms a gel at neutral and acidic pH, whilst it switches to a neutonial fluid at pH higher than 11.

[2] = gel and β-tape formation of peptides in solvents; type: physicochemical
Excerpt: Compatibility of the β-sheet surface and the solvent are also essential for gelation as opposed to peptide precipitation out of solution. For example, K24 forms β-tapes with both polar and apolar groups on their surfaces. Thus, they can form gels in solvents with intermediate polarity, corresponding to values of relative dielectric constants, εγ=εr=24-62.
In organic solvents such as ethanol, methanol and 2-chloroethanol we have discovered that the aforementioned peptide sequences self-assemble to provide elongated tapes approximately 8 nm wide and a single molecule in thickness.

Substance | effect of lithium chloride on the gel ([1]; molar ratio 1 peptide-7 lithium chloride) | drop of the fraction of β-sheet structure ([1]; solvents containing aromatic groups) | gel formation in solvents of higher or lower polarity ([2]; polarity above or below dielectric constant 24-62, β-sheet structures poorly soluble, precipitate) | relative dielectric constant of solvents in which gels are formed ([2]; solvents or solvent mixtures of intermediate polarity) | effect of added 1,1,1,3,3,3-hexafluoropropanol-2 on the gel ([1]; addition of 50% v 1,1,1,3,3,3-hexafluoropropanol-2) | effect of added water on the gel ([1]; addition of 50% v water) | effect of sodium dodecylsulfate (SDS) on the gel ([1]; molar ratio 1 K27-350 SDS)
NH2-Lys-Leu-Glu-Ala-Leu-Tyr-Val-Leu-Gly-Phe-Phe-Gly-Phe-Phe-Thr-Leu-Gly-Be-Met-Leu-Ser-Tyr-Rle-Arg-CO2H [K24] | contracts | 20-30% | gel is not formed | 24-62 |  |  | 
NH2-Lys-Leu-Glu-Ala-Leu-Tyr-Ile-Leu-Met-Val-Leu-Cly-Phe-Phe-Gly-Phe-Phe-Thr-Leu-Gly-Ie-Met-Leu-Ser-Tyr-Ile-Arg-CO2H [K27] |  |  |  |  | destroys the gel | destroys the gel | destroys the gel
